Assay results as given in PMC2587436.

Key:
Test in all cases: SPR
[1] = target: GST-APPBP1-UBA3Arg190Gln (Cys216Ala) (human) (UniProt Q13564)
[2] = target: GST-APPBP1-UBA3Arg190Ala (Cys216Ala) (human) (UniProt Q13564)
[3] = target: GST-APPBP1-UBA3 (Cys216Ala) (human) (UniProt Q13564)

| Substance | Kd [1] [µM] | Kd [2] [µM] | Kd [3] [µM] |
| --- | --- | --- | --- |
| NEDD8 (from UniProt Q15843 1-76) (natural protein) | 3.46 | 5.5 | 0.333 |
| NEDD8Ala72Arg (from UniProt Q15843 1-76) (natural protein) | 1.02 | 1.66 | > 10 |
| NEDD8Ala72Gln (from UniProt Q15843 1-76) (natural protein) | > 10 | > 10 | 8.75 |
| NEDD8Ala72Lys (from UniProt Q15843 1-76) (natural protein) | 0.886 | 2.97 | > 10 |
